Here are results for 9 molecules from patent US9708375 (Amgen, dated 2017).

Changes are numbered by the printed parent chain. In names and notes the source's numbering stands.

The chains are these.
T1: human recombinant Dkk-1 (human, UniProt O94907 32-266)
T1 construct: also called human Dkk-1; human Dkk1
T1 sequence (looked up): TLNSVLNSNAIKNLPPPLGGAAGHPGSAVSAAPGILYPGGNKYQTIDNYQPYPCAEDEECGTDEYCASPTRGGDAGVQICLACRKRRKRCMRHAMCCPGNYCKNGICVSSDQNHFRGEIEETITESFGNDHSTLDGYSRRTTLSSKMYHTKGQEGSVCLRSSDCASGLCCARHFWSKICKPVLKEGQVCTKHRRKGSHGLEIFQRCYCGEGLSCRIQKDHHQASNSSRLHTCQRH

T2: biotin labeled human recombinant Sclerostin (human, UniProt Q9BQB4 24-213)
T2 construct: also called human Sclerostin; huSOST
T2 sequence (looked up): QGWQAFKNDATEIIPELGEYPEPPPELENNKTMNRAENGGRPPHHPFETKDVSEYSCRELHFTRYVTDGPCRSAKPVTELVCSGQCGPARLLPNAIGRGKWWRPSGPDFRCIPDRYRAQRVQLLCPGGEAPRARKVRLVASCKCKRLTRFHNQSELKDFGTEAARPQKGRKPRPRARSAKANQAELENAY

B1: C4234 (designed binder)
chain: CPSNEFMCADKMCFPLIFLCDGENDCEDGSDEVDCPSRT
B2: C4229 (designed binder)
chain: CPASYFQCRNNNHCYPMEWRCDGFQDCEDGSDEKGCPYRT
B3: P7654 (bispecific antibody, human IgG2, lambda)
heavy: QVQLVESGGGVVQPGRSLRLSCAASGFTFSRYDMHWVRQAPGKGLEWVAIIFYDGSNKYYADPVKGRFTISRDNSKNTLYLQMNSLRAEDTAVYYCATLAAAFDYWGQGTLVTVSSASTKGPSVFPLAPCSRSTSESTAALGCLVKDYFPEPVTVSWNSGALTSGVHTFPAVLQSSGLYSLSSVVTVPSSNFGTQTYTCNVDHKPSNTKVDKTVERKCCVECPPCPAPPVAGPSVFLFPPKPKDTLMISRTPEVTCVVVDVSHEDPEVQFNWYVDGVEVHNAKTKPREEQFNSTFRVVSVLTVVHQDWLNGKEYKCKVSNKGLPAPIEKTISKTKGQPREPQVYTLPPSREEMTKNQVSLTCLVKGFYPSDIAVEWESNGQPENNYKTTPPMLDSDGSFFLYSKLTVDKSRWQQGNVFSCSVMHEALHNHYTQKSLSLSPGKSSGGSCAPNQFACNSYDKCVPAHWVCDGVLDCLDSSDETNCSAPASEPPGSLCPAYTEFLCADSDACFPSEWACDGEMDCVDGSDELHCAYHTSLQ
light: YVLTQPPSVSVAPGQTARITCGGNNIGSKSVHWYQQKPGQAPVLVVYDDSDRPSEIPERFSGSNSGNTATLTISRVEAGDEADYYCQVWDSSSDHVVFGGGTRLTVLGQPKAAPSVTLFPPSSEELQANKATLVCLISDFYPGAVTVAWKADSSPVKAGVETTTPSKQSNNKYAASSYLSLTPEQWKSHRSYSCQVTHEGSTVEKTVAPTECS
notes: also called C140164
B4: P7078 (bispecific antibody, human IgG2, lambda)
heavy: SGGSWCPPNHFMCNSYDKCVPAHWFCDGVLDCLDSSDETNCSAPASEPPGSLCPAYTEFLCKDSDRCFPSEWRCDGEMDCVDGSDELHCAYHTSQVQLVESGGGVVQPGRSLRLSCAASGFTFSRYDMHWVRQAPGKGLEWVAIIFYDGSNKYYADPVKGRFTISRDNSKNTLYLQMNSLRAEDTAVYYCATLAAAFDYWGQGTLVTVSSASTKGPSVFPLAPCSRSTSESTAALGCLVKDYFPEPVTVSWNSGALTSGVHTFPAVLQSSGLYSLSSVVTVPSSNFGTQTYTCNVDHKPSNTKVDKTVERKCCVECPPCPAPPVAGPSVFLFPPKPKDTLMISRTPEVTCVVVDVSHEDPEVQFNWYVDGVEVHNAKTKPREEQFNSTFRVVSVLTVVHQDWLNGKEYKCKVSNKGLPAPIEKTISKTKGQPREPQVYTLPPSREEMTKNQVSLTCLVKGFYPSDIAVEWESNGQPENNYKTTPPMLDSDGSFFLYSKLTVDKSRWQQGNVFSCSVMHEALHNHYTQKSLSLSPGK
light: B3 light
notes: also called P6886; Ab-Avimer-5 (P7078A)
B5: P7656 (bispecific antibody, human IgG2, lambda)
heavy: QVQLVESGGGVVQPGRSLRLSCAASGFTFSRYDMHWVRQAPGKGLEWVAIIFYDGSNKYYADPVKGRFTISRDNSKNTLYLQMNSLRAEDTAVYYCATLAAAFDYWGQGTLVTVSSASTKGPSVFPLAPCSRSTSESTAALGCLVKDYFPEPVTVSWNSGALTSGVHTFPAVLQSSGLYSLSSVVTVPSSNFGTQTYTCNVDHKPSNTKVDKTVERKCCVECPPCPAPPVAGPSVFLFPPKPKDTLMISRTPEVTCVVVDVSHEDPEVQFNWYVDGVEVHNAKTKPREEQFNSTFRVVSVLTVVHQDWLNGKEYKCKVSNKGLPAPIEKTISKTKGQPREPQVYTLPPSREEMTKNQVSLTCLVKGFYPSDIAVEWESNGQPENNYKTTPPMLDSDGSFFLYSKLTVDKSRWQQGNVFSCSVMHEALHNHYTQKSLSLSPGKSSGGSCAPNQFRCNSYDKCVPAHWVCDGVLDCLDSSDETNCGGGGSGGGGSCPAYTEFLCKDSDRCFPSEWRCDGEMDCVDGSDELHC
light: B3 light
notes: also called C140166
B6: P7070 (bispecific antibody, human IgG2, lambda)
heavy: QVQLVESGGGVVQPGRSLRLSCAASGFTFSRYDMHWVRQAPGKGLEWVAIIFYDGSNKYYADPVKGRFTISRDNSKNTLYLQMNSLRAEDTAVYYCATLAAAFDYWGQGTLVTVSSASTKGPSVFPLAPCSRSTSESTAALGCLVKDYFPEPVTVSWNSGALTSGVHTFPAVLQSSGLYSLSSVVTVPSSNFGTQTYTCNVDHKPSNTKVDKTVERKCCVECPPCPAPPVAGPSVFLFPPKPKDTLMISRTPEVTCVVVDVSHEDPEVQFNWYVDGVEVHNAKTKPREEQFNSTFRVVSVLTVVHQDWLNGKEYKCKVSNKGLPAPIEKTISKTKGQPREPQVYTLPPSREEMTKNQVSLTCLVKGFYPSDIAVEWESNGQPENNYKTTPPMLDSDGSFFLYSKLTVDKSRWQQGNVFSCSVMHEALHNHYTQKSLSLSPGKSSGGSWCPPNHFMCNSYDKCVPAHWFCDGVLDCLDSSDETNCSAPASEPPGSLCPAYTEFLCKDSDRCFPSEWRCDGEMDCVDGSDELHCAYHTSLQ
light: B3 light
notes: also called P6992; Ab-Avimer-3 (P7070A)
B7: P7649 (bispecific antibody, human IgG2, lambda)
heavy: QVQLVESGGGVVQPGRSLRLSCAASGFTFSRYDMHWVRQAPGKGLEWVAIIFYDGSNKYYADPVKGRFTISRDNSKNTLYLQMNSLRAEDTAVYYCATLAAAFDYWGQGTLVTVSSASTKGPSVFPLAPCSRSTSESTAALGCLVKDYFPEPVTVSWNSGALTSGVHTFPAVLQSSGLYSLSSVVTVPSSNFGTQTYTCNVDHKPSNTKVDKTVERKCCVECPPCPAPPVAGPSVFLFPPKPKDTLMISRTPEVTCVVVDVSHEDPEVQFNWYVDGVEVHNAKTKPREEQFNSTFRVVSVLTVVHQDWLNGKEYKCKVSNKGLPAPIEKTISKTKGQPREPQVYTLPPSREEMTKNQVSLTCLVKGFYPSDIAVEWESNGQPENNYKTTPPMLDSDGSFFLYSKLTVDKSRWQQGNVFSCSVMHEALHNHYTQKSLSLSPGSSGGSCAPNQFRCNSYDKCVPAHWVCDGVLDCLDSSDETNCSAPASEPPGSLCPAYTEFLCKDSDRCFPSEWRCDGEMDCVDGSDELHCAYHTSLQ
light: B3 light
notes: also called C140159
B8: P7069 (bispecific antibody, human IgG2, lambda)
heavy: QVQLVESGGGVVQPGRSLRLSCAASGFTFSRYDMHWVRQAPGKGLEWVAIIFYDGSNKYYADPVKGRFTISRDNSKNTLYLQMNSLRAEDTAVYYCATLAAAFDYWGQGTLVTVSSASTKGPSVFPLAPCSRSTSESTAALGCLVKDYFPEPVTVSWNSGALTSGVHTFPAVLQSSGLYSLSSVVTVPSSNFGTQTYTCNVDHKPSNTKVDKTVERKCCVECPPCPAPPVAGPSVFLFPPKPKDTLMISRTPEVTCVVVDVSHEDPEVQFNWYVDGVEVHNAKTKPREEQFNSTFRVVSVLTVVHQDWLNGKEYKCKVSNKGLPAPIEKTISKTKGQPREPQVYTLPPSREEMTKNQVSLTCLVKGFYPSDIAVEWESNGQPENNYKTTPPMLDSDGSFFLYSKLTVDKSRWQQGNVFSCSVMHEALHNHYTQKSLSLSPGKSSGGSCPAYTEFLCKDSDRCFPSEWRCDGEMDCVDGSDELHCAYHTCAPNQFRCNSYDKCVPAHWVCDGVLDCLDSSDETNCSAPASEPPGSLSLQ
light: B3 light
notes: also called P6991; Ab-Avimer-2 (P7069A)
B9: P7650 (bispecific antibody, human IgG2, lambda)
heavy: B7 heavy with A448G, P449R, N450D, Q451H, N455R, V466L, N481Y
light: B3 light
notes: also called C140160

One assay concerns the target T1, human recombinant Dkk-1. The assay is described as follows: AlphaScreen Dkk-1/LRP-6 inhibition.
On to B1, for which the binding result is “binds”.

For B2, the binding result is recorded as “binds”.

For another assay, the target named is T2, biotin labeled human recombinant …. The assay is described as follows: AlphaScreen Sclerostin/LRP-6 inhibition. For orientation: In Alpha technology, singlet oxygen from a donor bead excites a nearby acceptor bead.
Consider B3, for which the binding result is “binds”.

On to B4, for which the binding result is listed as “binds”.

Take B5: the binding result is given as “binds”.

On to B6, for which the binding result is “binds”.

As to B7, the binding result is recorded as “binds”.

In the case of B8, the binding result was “binds”.

As for B9, the binding result is “binds”.
